Measurements reported in PMC5906480, “Tau Antibody Structure Reveals a Molecular Switch Defining a Pathological Conformation of the Tau Protein” (Scientific Reports, 2018).

Key:
[1] = test system: FITC-conjugated non-phosphorylated tau peptide; assay: Fluorescence polarization direct binding, non-phosphorylated peptide; settings: Fab C5.2 675 nM to 0.08 nM; FITC-peptide 300 nM; 25 °C; fluorescence dip around 10 nM Fab due to protein aggregation and fluorophore quenching
Protocol: (§1) FITC-labeled peptides used in fluorescence polarization experiments were synthesized by Biomatik (Cambridge, ON, Canada). Fab C5.2 affinity was determined using a fluorescence polarization-based direct binding assay with fluorescein isothiocyanate (FITC)-conjugated peptides (Table 1). The FITC-peptide concentration was kept constant at 300 nM while Fab C5.2 was serially diluted from 675 nM to 0.08 nM. Data was collected at 25 °C using excitation and emission wavelengths of 485 nm and 535 nm, respectively. Each experiment was done in a single 96-well plate and calculated in triplicate (buffer: 50 mM Tris, 100 mM NaCl, 0.1% pluronic F-127). The experiments were performed with a DTX 880 Multimode Detector (Beckman Coulter, Jersey City, NJ). Fluorescence data was reduced using multimode detection software and KD values were calculated in GraphPad Prism 7.0 using a nonlinear regression model.
(§2) To accurately measure the C5.2 binding affinity, we performed fluorescence polarization experiments to determine dissociation constants (KD), using the Fab C5.2 and four differentially phosphorylated FITC-conjugated peptides (Table 1). The peptide concentration was kept constant while that of Fab C5.2 was serially diluted from 675 nM to 0.08 nM (Fig. 1d). […] In comparison with a […] IgG molecule, each Fab fragment contains a single binding site so the KD was calculated using a nonlinear model.

[2] = target: FITC-conjugated tau peptide pS396/pS404; assay: Fluorescence polarization direct binding, pS396/pS404 peptide; settings: Fab C5.2 675 nM to 0.08 nM; FITC-peptide 300 nM; 25 °C; 50 mM Tris, 100 mM NaCl, 0.1% pluronic F-127; ex 485/em 535 nm; triplicate; nonlinear regression
Protocol: as §1, §2

[3] = test system: FITC-conjugated tau peptide pS404; assay: Fluorescence polarization direct binding, pS404 peptide; settings: Fab C5.2 675 nM to 0.08 nM; FITC-peptide 300 nM; 25 °C; fluorescence dip around 10 nM Fab due to protein aggregation and fluorophore quenching
Protocol: as §1, §2

[4] = target: FITC-conjugated tau peptide pS396; assay: Fluorescence polarization direct binding, pS396 peptide; settings: Fab C5.2 675 nM to 0.08 nM; FITC-peptide 300 nM; 25 °C; 50 mM Tris, 100 mM NaCl, 0.1% pluronic F-127; ex 485/em 535 nm; triplicate; nonlinear regression
Protocol: as §1, §2

- Recognition of the non-phosphorylated peptide [1]: does not recognize
- Kd [2]: 0.0154 µM
- Recognition of peptide pS404 [3]: does not recognize
- Kd [4]: 0.0149 µM
B1: Fab C5.2: Fab fragment of C5.2 prepared by papain digestion (antibody, V domains shown)
VH: QVQLQQSDAELVKPGASVKISCKASGYTFTDRTIHWVKQRPEQGLEWIGYIYPGDDSTKYNDMFKAKATLTADKSSNTAYMQLNSLTSDDSAVYFCARRGTMDYWGQGTSVTVSS
VL: DVQMIQSPSSLSASLGDIVTMTCQASQDTSINLNWFQQKPGKAPKLLIYGASNLEDGVPSRFSGSRYGTDFTLTISSLEDEDMATYFCLQHTYLPFTFGSGTKLEIK
